US7442518B2, “Imaging regulated protein-protein interactions in cells and living animals by enhanced luciferase protein fragment complementation” (Washington University, priority 2003, dated 2008)
Each block holds one molecule with its values, some of them ahead of it.

Legend:
[1] = system: phosphorylation of Cdc25C-NLuc on S216; experiment: Western blot of phospho-S216 Cdc25C-NLuc in HEK-293 cells; format: cell-based, human; conditions: UCN-01 1 μM, 6 hrs
Protocol: Cells were left untreated or treated with UCN-01 (1 μM) for 6 hrs prior to lysis, processed for Western analysis and then probed with the antibodies indicated to visualize expression, phosphorylation, and the effect of UCN-01 on the LCI constructs.
Cells (3×10^6/10 cm dish) were transfected with the indicated plasmids (6 μg each). Media was removed 6 hrs prior to lysis and replaced with media containing UCN-01 at the concentrations indicated. Cells were washed with PBS and lysed by incubation for 30 min at 4° C. with 1 ml RIPA buffer containing protease inhibitors (50 mM tris-HCl, pH 7.4, 1% NP-40, 0.25% deoxycholic acid, 150 mM NaCl, 1 mM EDTA, 1 mM each PMSF, sodium orthovanadate, and NaF, 1 μg/ml each leupeptin, aprotinin, pepstatin). After centrifugation to remove insoluble material, protein concentration was determined by BCA (Pierce Biotechnology, Inc., Customer Service Department, P.O. Box 117, Rockford, Ill. 61105 U.S.A). The Bicinchoninic Acid (BCA) test to determine protein concentration is a highly sensitive alternate assay to the Lowry assay.
Proteins (200 μg) were separated by SDS-PAGE and analyzed using polyclonal primary antibodies against pGL3 luciferase (Promega US, 2800 Woods Hollow Road, Madison Wis. 53711, USA) or phospho-S216-Cdc25C (Santa Cruz Biotechnologies, 2145 Delaware Avenue, Santa Cruz, Calif. 95060, U.S.A.). […]

[2] = system: Cdc25C-NLuc/CLuc-14-3-3ε LCI pair; experiment: LCI of Cdc25C/14-3-3ε interaction in HEK-293 cells; format: cell-based, human; conditions: UCN-01 1 μM, 6 hrs
Protocol: HEK-293 cells transfected with Cdc25C-NLuc/CLuc-14-3-3ε or mutant S216A Cdc25C-NLuc/CLuc-14-3-3ε were treated with vehicle alone or UCN-01 (1 μM) for 6 hrs prior to LCI. Data are expressed as percent of bioluminescence relative to untreated Cdc25C-NLuc/CLuc-14-3-3ε in cells and represent the mean±SEM of three independent experiments, n=4 each.
To replace the FRB with human Cdc25C or human p91 STAT1 (J. E. Darnell Jr., The Rockefeller University, 1230 York Avenue, NY, N.Y. 10021, USA.) in the NLuc fusion vector, open reading frames of these cDNAs were amplified by PCR using 5′ primers containing a BamHI site and Kozak consensus sequence upstream of the start site and 3′ primers which reconstituted the linker region up to the BsiWI site. FRB was replaced using the BamHI and BsiWI sites. FKBP was similarly replaced with 14-3-3ε or STAT1 using BsiWI at the 3′ end and EcoRV at the 5′ end.
Cells (1×10^4/well in 100 μl media) were transferred to 96-well black walled plates 16-24 hrs after transfection. At the times indicated, growth media was replaced with media containing appropriate drugs or vehicles. To image live cells, D-luciferin (10 μl of 1.5 mg/ml in PBS) was added to wells. Photon flux for each well was measured 8-10 min after addition of D-luciferin with an IVIS CCD camera (1 min exposure, f-stop=1, binning 8, FOV 15 cm). […]

[3] = target: FRB domain of human mTOR / FKBP-12 (FRB-NLuc/CLuc-FKBP LCI pair) (Homo sapiens, UniProt P42345+P62942); experiment: Luciferase complementation imaging (LCI) of rapamycin-induced FRB/FKBP association in live HEK-293 cells; format: cell-based; conditions: HEK293, read-out: EC90 of rapamycin; HEK-293 cells transfected with FRB-NLuc/CLuc-FKBP
Protocol: Data, expressed as mean photon flux±SEM of quadruplicate wells, are representative of three independent tests.
HEK-293 cells were cultured in Dulbecco's Modified Eagle Medium (DMEM), (Life Technologies, 2575 University Ave. W., St. Paul, Minn. 55114 USA) supplemented with 10% fetal calf serum (FCS), 1% glutamine, 0.1% P/S, 0.1% fungizone. Cells (3×10^6/10 cm dish or 1.5×10^5 per 35 mm dish) were transiently co-transfected with pairs of plasmids as indicated using FuGene-6 (Roche) according to the manufacturers directions.

[4] = system: STAT1-NLuc, CLuc-STAT1, endogenous p91 and p84 STAT1 phosphorylation; experiment: Western blot of Y701 phosphorylation of STAT1 reporters and endogenous STAT1 in HEK-293 cells; format: cell-based, human; conditions: IFN-γ 1000 U/ml, 30 min
Protocol: Cells were left untreated or treated with IFN-γ (1000 U/ml) for 30 min prior to lysis, processed for Western analysis and then probed with the antibodies indicated to visualize expression and IFN-γ-induced phosphorylation of STAT1-NLuc (grey arrows), CLuc-STAT1 (black arrows), and endogenous p91 and p84 STAT1 (unfilled arrows). Intact luciferase expression (hatched arrow) is also shown. Note that while STAT1-NLuc could not be visualized using the STAT1 antibody, the fusion could be visualized with both Luc and phospho-STAT1 antibodies.

[5] = system: STAT1-NLuc/CLuc-STAT1 LCI pair; experiment: LCI of STAT1-NLuc/CLuc-STAT1 in intact transduced cells (HEK-293, 2ftgh, U3A); format: cell-based, human; conditions: any time or any dose
Protocol: Each transduced cell line was sorted by FACS for expression of appropriate fluorescence markers (EGFP and mRFP) to enrich for cells carrying the imaging constructs. These enriched populations were seeded in a 96-well format (10^4 cells/well), and left untreated or treated with […] (1000 U/ml for 30 min). Bars represent the mean +/−SEM (n=4) for a representative test. Note the y-axis log scale.
The STAT1-NLuc and CLuc-STAT1 open reading frames were cloned into lentiviral vectors (gift of J. Milbrandt, Washington University in St. Louis, One Brookings Drive, St. Louis, Mo. 63130, USA ) downstream of a CMV promoter and upstream of an IRES linked to EGFP (Clontech) or mRFP (R. Tsien, UCSD), respectively.
Cells (1×10^4/well in 100 μl media) were transferred to 96-well black walled plates 16-24 hrs after transfection. At the times indicated, growth media was replaced with media containing appropriate drugs or vehicles. To image live cells, D-luciferin (10 μl of 1.5 mg/ml in PBS) was added to wells. Photon flux for each well was measured 8-10 min after addition of D-luciferin with an IVIS CCD camera (1 min exposure, f-stop=1, binning 8, FOV 15 cm). Cell lyastes used for imaging were prepared using Reporter Lysis Buffer (Promega US, 2800 Woods Hollow Road, Madison Wis. 53711, USA) according to the manufacturers directions.

[6] = system: Y701F mutant STAT1 LCI pair; experiment: Bioluminescence of nuclear extracts of cells expressing the Y701F mutant STAT1 LCI pair; format: cell-based, human; conditions: IFN-γ 20 min, 100 U/ml, HEK-293
Protocol: (§1) HEK-293 cells were transiently transfected with STAT1-NLuc/CLuc-STAT1, the Y701F STAT1 mutant LCI pair, or intact luciferase. Forty-eight hours after transfection, cells were left untreated or treated with IFN-γ (1000 U/ml for 20 min) (n=3 for each) and then extracts prepared. To measure bioluminescence in extracts, an assay buffer including D-luciferin and ATP (Luciferase Assay Buffer, Promega, USA) was added to duplicate samples of each extract. Bars show the ratio +/−SEM of mean photon flux/μg protein for extracts of IFN-γ treated over untreated cells. […] Duplicate determinations are vertically arranged with independent extracts arrayed horizontally.
To confirm that phosphorylated STAT1 LCI pairs were biologically functional, the inventors measured the IFN-γ-inducible nuclear accumulation of bioluminescence activity. Cytoplasmic and nuclear extracts were prepared from untreated and IFN-γ-treated HEK-293 cells transiently co-transfected with the STAT1-NLuc/CLuc-STAT1 LCI pair, the Y701F mutant pair, or intact luciferase. […] Western blots of the cytoplasmic and nuclear extracts used in FIG. 16. confirmed purity of the extracts, neither fraction showing cross-contamination as assessed by the marker proteins β-tubulin (cytoplasm) and Topo II (nucleus), respectively (data not shown). […]

[7] = system: STAT1-NLuc/CLuc-STAT1 LCI pair (nuclear accumulation); experiment: Bioluminescence of nuclear extracts of cells expressing STAT1-NLuc/CLuc-STAT1; format: cell-based, human
Protocol: as §1, with “Forty-eight hours after transfection, cells were left untreated or treated with IFN-γ (1000 U/ml for 20 min) (n=3 for each) and then extracts prepared.” left out
To confirm that phosphorylated STAT1 LCI pairs were biologically functional, the inventors measured the IFN-γ-inducible nuclear accumulation of bioluminescence activity. Cytoplasmic and nuclear extracts were prepared from untreated and IFN-γ-treated HEK-293 cells transiently co-transfected with the STAT1-NLuc/CLuc-STAT1 LCI pair, the Y701F mutant pair, or intact luciferase. […] Western blots of the cytoplasmic and nuclear extracts used in FIG. 16. confirmed purity of the extracts, neither fraction showing cross-contamination as assessed by the marker proteins β-tubulin (cytoplasm) and Topo II (nucleus), respectively (data not shown). Western blots also confirmed virtually identical expression levels of wild-type and Y701F mutant LCI pairs as well as appropriate phosphorylation of STAT1 proteins and reporters (data not shown).

Chain of FRB domain of human mTOR / FKBP-12 (FRB-NLuc/CLuc-FKBP LCI pair) (P42345 2024-2113): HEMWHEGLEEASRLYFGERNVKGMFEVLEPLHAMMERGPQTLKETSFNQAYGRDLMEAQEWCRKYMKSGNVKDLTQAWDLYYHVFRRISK
Chain of FRB domain of human mTOR / FKBP-12 (FRB-NLuc/CLuc-FKBP LCI pair) (P62942 2-108): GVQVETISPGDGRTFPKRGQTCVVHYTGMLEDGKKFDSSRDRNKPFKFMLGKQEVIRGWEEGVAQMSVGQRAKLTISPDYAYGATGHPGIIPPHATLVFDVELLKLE

Molecule: CN[C@@H]1C[C@H]2O[C@@](C)([C@@H]1OC)n1c3ccccc3c3c4c(c5c6ccccc6n2c5c31)C(=O)N[C@@H]4O [UCN-01]
effect on phosphorylation of Cdc25C-NLuc on S216 [1]: reduction in phosphorylation | effect on bioluminescence of Cdc25C-NLuc/CLuc-14-3-3ε [2]: decreased bioluminescence

EC90 [3]: 80 nM
Molecule: CO[C@H]1C[C@@H]2CC[C@@H](C)[C@@](O)(O2)C(=O)C(=O)N2CCCC[C@H]2C(=O)O[C@H]([C@H](C)C[C@@H]2CC[C@@H](O)[C@H](OC)C2)CC(=O)[C@H](C)/C=C(\C)[C@@H](O)[C@@H](OC)C(=O)[C@H](C)C[C@H](C)/C=C/C=C/C=C/1C [rapamycin]

B1: IFN-γ: interferon-γ, activates JAK1-mediated phosphorylation of STAT1 on Y701 (protein, UniProt P01579 24-161, looked up)
Interferon gamma: QDPYVKEAENLKKYFNAGHSDVADNGTLFLGILKNWKEESDRKIMQSQIVSFYFKLFKNFKDDQSIQKSVETIKEDMNVKFFNSNKKKRDDFEKLTNYSVTDLNVQRKAIHELIQVMAELSPAAKTGKRKRSQMLFRG
phosphorylation of STAT1-NLuc, CLuc-STAT1 and endogenous p91 and p84 STAT1 [4]: resulted in phosphorylation | effect on bioluminescence of co-transduced intact cells [5]: failed to change bioluminescence | nuclear bioluminescence in extracts of cells with mutant STAT1 LCI pair [6]: No such IFN-γ-induced increase | bioluminescence (photon flux/μg protein) in nuclear extracts of HEK-293 cells ([7]; IFN-γ 20 min): specifically increased | increase in bioluminescence of nuclear extracts of U3A cells ([7]; IFN-γ 30 min, n=3): 6 fold
